B1: NY-ESO-1-VHH-5 (VHH)
VHH: QVQLQESGGGLVQAGGSLRLSCAASGNISAVYTMGWYRQAPGKEREFVAAIDYGGSTYYADSVKGRFTISRDNAKNTVYLQMNSLKPEDTAVYYCASYYHGYWGQGTQVTVSS
notes: Synthetic nanobody from a yeast display library
B2: NY-ESO-1-VHH-4 (VHH)
VHH: QVQLQESGGGLVQAGGSLRLSCAASGNIFYPQYMGWYRQAPGKEREFVAAISDGASTYYADSVKGRFTISRDNAKNTVYLQMNSLKPEDTAVYYCADLWYWGQGTQVTVSS
notes: as for B1
B3: NY-ESO-1-VHH-1 (VHH)
VHH: QVQLQESGGGLVQAGGSLRLSCAASGTIFHQIDMGWYRQAPGKERELVAAIGTGSSTYYADSVKGRFTISRDNAKNTVYLQMNSLKPEDTAVYYCAAWHYYWGQGTQVTVSS
notes: as for B1
B4: NY-ESO-1-VHH-9 (VHH)
VHH: QVQLQESGGGLVQAGGSLRLSCAASGYISYLNTMGWYRQAPGKEREFVATIGQGSSTYYADSVKGRFTISRDNAKNTVYLQMNSLKPEDTAVYYCADQLGYWGQGTQVTVSS
notes: as for B1

This experiment deals with T1, …-HLA A0201 complex (human, biotinylated with BirA (site not stated)).
T1 construct: Held on streptavidin in the ELISA and in SPR; also called NY-ESO-1 antigen; positive antigen NY-ESO-1
Briefly: SPR (BIAcore), biotinylated pMHC on streptavidin-coupled CM5 chip, nanobody as analyte. Background: In SPR one partner is held on a chip, and binding of the other changes the refractive index at the surface.
Usually Kd stands for a measure of binding affinity in units of concentration. B1 showed a Kd of 68.1 nM.
On to B2, for which the Kd stood at 102 nM.
B3 came in with a Kd of 96.6 nM.
B4 gave a Kd of 1170 nM.

The values above are taken from patent EP4814019A1 (Zhejiang University, dated 2026).
